Values quoted from earlier work as cited in publication PMC11949069.

Target: IL-18BPa (Homo sapiens) (UniProt O95998)
Sequence (O95998 31-194): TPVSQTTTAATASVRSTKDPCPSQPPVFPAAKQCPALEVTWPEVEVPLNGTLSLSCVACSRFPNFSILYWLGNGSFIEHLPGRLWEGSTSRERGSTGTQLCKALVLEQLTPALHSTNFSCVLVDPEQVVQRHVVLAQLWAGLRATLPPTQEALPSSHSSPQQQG

Chain of IL-18 (Q14116 37-193): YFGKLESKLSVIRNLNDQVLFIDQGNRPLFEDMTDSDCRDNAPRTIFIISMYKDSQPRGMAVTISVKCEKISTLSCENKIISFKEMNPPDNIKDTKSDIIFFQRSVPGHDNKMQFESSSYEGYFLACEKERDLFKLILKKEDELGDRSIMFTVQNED

Q: With IL-18 (from UniProt Q14116) as the substance, how does the Kd read?
A: 0.4 nM
